Biological target: rabbit muscle actin (filaments: ADP-F-actin or ADP•BeFx-F-actin) (rabbit, UniProt P68135 1-377)
Assay: co-sedimentation

- KD of a small fraction (~20%) of the cofilin: ~1000 nM
- KD of the majority of the cofilin: ~5000 nM
B1: cofilin-2 (mouse, recombinant wild type) (natural protein)
chain: MASGVTVNDEVIKVFNDMKVRKSSTQEEIKKRKKAVLFCLSDDKRQIIVEEAKQILVGDIGDTVEDPYTSFVKLLPLNDCRYALYDATYETKESKKEDLVFIFWAPESAPLKSKMIYASSKDAIKKKFTGIKHEWQVNGLDDIKDRSTLGEKLGGSVVVSLEGKPL

Reference: publication PMC4223631 (Developmental cell, 2014)
